Experimental data as given in publication doi:10.1101/2024.07.24.604958 (bioRxiv, 2024).
Where two headings read alike, the source gives them in different places.

T1: CIB2, wild type, Trx-His6 tag removed (mouse, UniProt Q9Z309 1-187)
T1 sequence: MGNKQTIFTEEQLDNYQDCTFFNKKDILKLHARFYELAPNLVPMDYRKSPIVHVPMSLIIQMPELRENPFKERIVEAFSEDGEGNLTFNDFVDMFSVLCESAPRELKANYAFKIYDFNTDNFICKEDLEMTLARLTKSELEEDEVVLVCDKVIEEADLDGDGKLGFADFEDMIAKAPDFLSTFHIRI

T2: CIB2 (calcium and integrin-binding protein 2), wild type (mouse, UniProt Q9Z309 1-187)
T2 sequence: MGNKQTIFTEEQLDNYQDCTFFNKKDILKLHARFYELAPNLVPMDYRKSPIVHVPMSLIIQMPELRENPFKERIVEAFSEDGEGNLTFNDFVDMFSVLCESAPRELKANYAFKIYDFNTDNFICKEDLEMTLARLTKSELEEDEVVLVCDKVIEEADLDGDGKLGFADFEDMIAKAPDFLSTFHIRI

T3: CIB2-DD116/120AA (mouse, UniProt Q9Z309 1-187, DD116/120AA | DD116/120AA)
T3 sequence: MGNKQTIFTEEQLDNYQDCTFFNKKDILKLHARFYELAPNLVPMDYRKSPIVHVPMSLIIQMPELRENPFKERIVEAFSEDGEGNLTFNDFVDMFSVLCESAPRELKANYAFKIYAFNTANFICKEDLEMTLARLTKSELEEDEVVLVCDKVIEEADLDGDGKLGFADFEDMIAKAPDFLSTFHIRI

T4: CIB2-DD157/161AA (mouse, UniProt Q9Z309 1-187, DD157/161AA | DD157/161AA)
T4 sequence: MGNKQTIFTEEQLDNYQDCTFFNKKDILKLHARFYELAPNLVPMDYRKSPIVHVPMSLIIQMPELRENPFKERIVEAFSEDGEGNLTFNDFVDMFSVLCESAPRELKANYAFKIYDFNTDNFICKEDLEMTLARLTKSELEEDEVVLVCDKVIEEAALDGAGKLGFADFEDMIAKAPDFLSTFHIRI

T5: CIB2-E141N (mouse, UniProt Q9Z309 1-187, E141N)
T5 sequence: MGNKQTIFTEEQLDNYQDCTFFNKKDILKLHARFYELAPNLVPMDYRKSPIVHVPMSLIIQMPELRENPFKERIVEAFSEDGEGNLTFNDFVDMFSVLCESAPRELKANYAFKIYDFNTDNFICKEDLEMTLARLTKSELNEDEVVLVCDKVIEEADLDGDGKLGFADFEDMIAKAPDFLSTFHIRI


Experiments:
[1] = target: T1, CIB2, wild type, Trx-His6 tag removed; test: SEC-MALS
[2] = target: T2, CIB2 (calcium and integrin-binding …); test: ITC
[3] = target: T2, CIB2 (calcium and integrin-binding …); test: ITC; remark: listed apart in the source
[4] = target: T3, CIB2-DD116/120AA; test: ITC
[5] = target: T4, CIB2-DD157/161AA; test: ITC
[6] = target: T1, CIB2, wild type, Trx-His6 tag removed; test: SEC-MALS; remark: listed apart in the source
[7] = target: T5, CIB2-E141N; test: crystal structure

Kd [2] [nM] | Kd [3] [nM] | stoichiometry N [6] | Binder | further results
– | – | – | KGQKAANLDLKKKMKQQALENKMRNKKMAAARAAAAAGGQ (domain or fragment, mouse, UniProt Q8R4P5 718-757, looked up) [TMC1 CR3 (amino acids 718-757) as used in SEC-MALS] | stoichiometry N [1]: 1
~43400 | – | – | KGQKAANLDLKKKMKQQALENKMRNKKMAAARAAAAAGGQ (domain or fragment, mouse, UniProt Q8R4P5 718-757, looked up) [TMC1 cytosolic region 3 (CR3, amino acids 718-757)] | –
~870 | ~74 | – | EELERLKALLDENRQMIATVKCKPWKMEKKIEVLKEAKKFVSENEGALGK (domain or fragment, mouse, UniProt Q8R4P5 81-130, looked up) [TMC1 cytosolic region 1 (CR1, amino acids 81-130)] | fold decrease of binding against CIB2 WT [4]: ~150 fold; fold decrease of binding against CIB2 WT [5]: ~50 fold
– | – | 1 | EELERLKALLDENRQMIATVKCKPWKMEKKIEVLKEAKKFVSENEGALGK (domain or fragment, mouse, UniProt Q8R4P5 81-130, looked up) [TMC1 CR1 (amino acids 81-130), Trx-His6 tag removed] | binding result [7]: binds
~10800 | ~480 | – | TMC1 cytosolic region 2 (CR2, amino acids 298-352) with MBP tag (domain or fragment, mouse, UniProt Q8R4P5 298-352, looked up) GGGDDNTFNFSWKVFCSWDYLIGNPETADNKFNSITMNFKEAIIEERAAQVEENI | –
– | – | 1 | TMC1 CR2 (amino acids 298-352) as used in SEC-MALS (domain or fragment, mouse, UniProt Q8R4P5 298-352, looked up) GGGDDNTFNFSWKVFCSWDYLIGNPETADNKFNSITMNFKEAIIEERAAQVEENI | –
